From PMC7563477, “N-Terminal Segment of TvCyP2 Cyclophilin from Trichomonas vaginalis Is Involved in Self-Association, Membrane Interaction, and Subcellular Localization” (Biomolecules, 2020) come the findings set out here.

For this assay, the target named is T1, T. vaginalis cyclophilin 2 (TvCyP2), recombinant with C-terminal His-tag (Trichomonas vaginalis, UniProt A2DLL4 1-186).
T1 construct: TvCyP2 cyclophilin of Trichomonas vaginalis, with its N-terminal segment; secondary structure is described up to residue 184; theoretical molecular weight 20.947 kDa; 15N-labelled for the NMR experiments; Cloned into pET-29b by NdeI and XhoI; also called TvCyP2_apo1; TvCyP2_apo2; source: E. coli BL21(DE3), purified (Q-sepharose flow-through, Ni-NTA; SEC superdex-75 for crystallization and …)
Nature of the assay: NMR titration; 2D 1H-15N HSQC of the 15N-labelled protein without and with unlabelled TvCyP2(3-18) peptide (molar ratio 1:5); 800 MHz, 310 K; 20 mM NaH2PO4, 50 mM NaCl, pH 6.0, 10% D2O. The following applies: both partners purified.

B1: TvCyP2_(3–18) peptide (peptide)
peptide: AFFATRVISAPKVTKK
notes: residues 3-18 of TvCyP2 of Trichomonas vaginalis (N-terminal segment); source: synthetic peptide, HPLC-grade, bought: Yao-Hong Biotechnology
For the molecule B1, the binding result is recorded as “binds”.
